Measurements taken from patent US20240132578A1.

Columns and labels:
Assay in all cases: cell-based or functional assay
[1] = molecular target: HIV-1 Env of isolate 93MW959 (subtype C) (HIV-1)
[2] = molecular target: HIV-1 Env of isolate 97ZA012 (subtype C) (HIV-1)
[3] = molecular target: HIV-1 Env of isolate 98IN022 (subtype C) (HIV-1)
[4] = molecular target: HIV-1 Env of isolate MGRM-C-001 (subtype C) (HIV-1)
[5] = molecular target: HIV-1 Env of isolate MGRM-C-002 (subtype C) (HIV-1)
[6] = molecular target: HIV-1 Env of isolate MGRM-C-004 (subtype C) (HIV-1)
[7] = molecular target: HIV-1 Env of isolate MGRM-C-005 (subtype C) (HIV-1)
[8] = molecular target: HIV-1 Env of isolate MGRM-C-006 (subtype C) (HIV-1)
[9] = molecular target: HIV-1 Env of isolate MGRM-C-007 (subtype C) (HIV-1)
[10] = molecular target: HIV-1 Env of isolate MGRM-C-008 (subtype C) (HIV-1)
[11] = molecular target: HIV-1 Env of isolate MGRM-C-009 (subtype C) (HIV-1)
[12] = molecular target: HIV-1 Env of isolate MGRM-C-010 (subtype C) (HIV-1)
[13] = molecular target: HIV-1 Env of isolate MGRM-C-012 (subtype C) (HIV-1)
[14] = molecular target: HIV-1 Env of isolate MGRM-C-013 (subtype C) (HIV-1)
[15] = molecular target: HIV-1 Env of isolate MGRM-C-014 (subtype C) (HIV-1)
[16] = molecular target: HIV-1 Env of isolate MGRM-C-015 (subtype C) (HIV-1)
[17] = molecular target: HIV-1 Env of isolate MGRM-C-017 (subtype C) (HIV-1)
[18] = molecular target: HIV-1 Env of isolate MGRM-C-019 (subtype C) (HIV-1)
[19] = molecular target: HIV-1 Env of isolate MGRM-C-020 (subtype C) (HIV-1)
[20] = molecular target: HIV-1 Env of isolate MGRM-C-022 (subtype C) (HIV-1)
[21] = molecular target: HIV-1 Env of isolate MGRM-C-023 (subtype C) (HIV-1)
[22] = molecular target: HIV-1 Env of isolate MGRM-C-024 (subtype C) (HIV-1)
[23] = molecular target: HIV-1 Env of isolate MGRM-C-025 (subtype C) (HIV-1)
[24] = molecular target: HIV-1 Env of isolate MGRM-C-026 (subtype C) (HIV-1)
[25] = molecular target: HIV-1 Env of isolate MGRM-C-027 (subtype C) (HIV-1)
[26] = molecular target: HIV-1 Env of isolate MGRM-C-028 (subtype C) (HIV-1)
[27] = molecular target: HIV-1 Env of isolate MGRM-G-001 (subtype G), on pseudovirus (HIV-1)
[28] = molecular target: HIV-1 Env of isolate MGRM-G-004 (subtype G), on pseudovirus (HIV-1)
[29] = molecular target: HIV-1 Env of isolate MGRM-G-006 (subtype G), on pseudovirus (HIV-1)
[30] = molecular target: HIV-1 Env of isolate MGRM-G-009 (subtype G), on pseudovirus (HIV-1)
[31] = molecular target: HIV-1 Env of isolate MGRM-G-011 (subtype G), on pseudovirus (HIV-1)
[32] = molecular target: HIV-1 Env of isolate MGRM-G-013 (subtype G), on pseudovirus (HIV-1)
[33] = molecular target: HIV-1 Env of isolate MGRM-G-014 (subtype G), on pseudovirus (HIV-1)
[34] = molecular target: HIV-1 Env of isolate MGRM-G-015 (subtype G), on pseudovirus (HIV-1)
[35] = molecular target: HIV-1 Env of isolate MGRM-G-016 (subtype G), on pseudovirus (HIV-1)
[36] = molecular target: HIV-1 Env of isolate MGRM-G-017 (subtype G), on pseudovirus (HIV-1)
[37] = molecular target: HIV-1 Env of isolate MGRM-G-019 (subtype G), on pseudovirus (HIV-1)
[38] = molecular target: HIV-1 Env of isolate MGRM-G-024 (subtype G), on pseudovirus (HIV-1)
[39] = molecular target: HIV-1 Env of isolate MGRM-G-025 (subtype G), on pseudovirus (HIV-1)
[40] = molecular target: HIV-1 Env of isolate MGRM-G-027 (subtype G), on pseudovirus (HIV-1)
[41] = molecular target: HIV-1 Env of isolate MGRM-G-028 (subtype G), on pseudovirus (HIV-1)
[42] = molecular target: aMLV envelope, on pseudovirus (negative control)
[43] = molecular target: HIV-1 JR-CSF Env D474A (HIV-1 JR-CSF) (UniProt P20871)
[44] = molecular target: HIV-1 JR-CSF Env G471A (HIV-1 JR-CSF) (UniProt P20871)

PGT-121 (antibody)
IC50 (µg/mL), pseudovirus neutralization [1]: 0.013 µg/mL | IC50 (µg/mL), pseudovirus neutralization [2]: 0.002 µg/mL | IC50 (µg/mL), pseudovirus neutralization [3]: 0.007 µg/mL | IC50 (µg/mL), pseudovirus neutralization [4]: 17.5 µg/mL | IC50 (µg/mL), pseudovirus neutralization [5]: 0.019 µg/mL | IC50 (µg/mL), pseudovirus neutralization [6]: 0.011 µg/mL | IC50 (µg/mL), pseudovirus neutralization [7]: 0.015 µg/mL | IC50 (µg/mL), pseudovirus neutralization [8]: 0.017 µg/mL | IC50 (µg/mL), pseudovirus neutralization [9]: 0.196 µg/mL | IC50 (µg/mL), pseudovirus neutralization [10]: 0.012 µg/mL | IC50 (µg/mL), pseudovirus neutralization [11]: > 50 µg/mL | IC50 (µg/mL), pseudovirus neutralization [12]: > 50 µg/mL | IC50 (µg/mL), pseudovirus neutralization [13]: 0.123 µg/mL | IC50 (µg/mL), pseudovirus neutralization [14]: 7.23 µg/mL | IC50 (µg/mL), pseudovirus neutralization [15]: 26.9 µg/mL | IC50 (µg/mL), pseudovirus neutralization [16]: 25.1 µg/mL | IC50 (µg/mL), pseudovirus neutralization [17]: 0.009 µg/mL | IC50 (µg/mL), pseudovirus neutralization [18]: > 50 µg/mL | IC50 (µg/mL), pseudovirus neutralization [19]: > 50 µg/mL | IC50 (µg/mL), pseudovirus neutralization [20]: 0.015 µg/mL | IC50 (µg/mL), pseudovirus neutralization [21]: 0.017 µg/mL | IC50 (µg/mL), pseudovirus neutralization [22]: 0.052 µg/mL | IC50 (µg/mL), pseudovirus neutralization [23]: 46.8 µg/mL | IC50 (µg/mL), pseudovirus neutralization [24]: 0.002 µg/mL | IC50 (µg/mL), pseudovirus neutralization [25]: 0.011 µg/mL | IC50 (µg/mL), pseudovirus neutralization [26]: 0.472 µg/mL | IC50 (µg/mL), neutralization of pseudovirus [27]: 0.004 µg/mL | IC50 (µg/mL), neutralization of pseudovirus [28]: 0.115 µg/mL | IC50 (µg/mL), neutralization of pseudovirus [29]: > 50 µg/mL | IC50 (µg/mL), neutralization of pseudovirus [30]: 0.02 µg/mL | IC50 (µg/mL), neutralization of pseudovirus [31]: 3.17 µg/mL | IC50 (µg/mL), neutralization of pseudovirus [32]: 3.99 µg/mL | IC50 (µg/mL), neutralization of pseudovirus [33]: 0.009 µg/mL | IC50 (µg/mL), neutralization of pseudovirus [34]: > 50 µg/mL | IC50 (µg/mL), neutralization of pseudovirus [35]: > 50 µg/mL | IC50 (µg/mL), neutralization of pseudovirus [36]: 0.004 µg/mL | IC50 (µg/mL), neutralization of pseudovirus [37]: 0.011 µg/mL | IC50 (µg/mL), neutralization of pseudovirus [38]: 0.014 µg/mL | IC50 (µg/mL), neutralization of pseudovirus [39]: 0.063 µg/mL | IC50 (µg/mL), neutralization of pseudovirus [40]: 0.124 µg/mL | IC50 (µg/mL), neutralization of pseudovirus [41]: 0.014 µg/mL | IC50 (µg/mL), neutralization of pseudovirus [42]: > 50 µg/mL

PGT-122 (antibody)
IC50 (µg/mL), pseudovirus neutralization [1]: 0.016 µg/mL | IC50 (µg/mL), pseudovirus neutralization [2]: 0.004 µg/mL | IC50 (µg/mL), pseudovirus neutralization [3]: 0.032 µg/mL | IC50 (µg/mL), pseudovirus neutralization [4]: 19.1 µg/mL | IC50 (µg/mL), pseudovirus neutralization [5]: 0.022 µg/mL | IC50 (µg/mL), pseudovirus neutralization [6]: 0.02 µg/mL | IC50 (µg/mL), pseudovirus neutralization [7]: 0.027 µg/mL | IC50 (µg/mL), pseudovirus neutralization [8]: 0.018 µg/mL | IC50 (µg/mL), pseudovirus neutralization [9]: 3.35 µg/mL | IC50 (µg/mL), pseudovirus neutralization [10]: 0.028 µg/mL | IC50 (µg/mL), pseudovirus neutralization [11]: > 50 µg/mL | IC50 (µg/mL), pseudovirus neutralization [12]: > 50 µg/mL | IC50 (µg/mL), pseudovirus neutralization [13]: 2 µg/mL | IC50 (µg/mL), pseudovirus neutralization [14]: 32.6 µg/mL | IC50 (µg/mL), pseudovirus neutralization [15]: > 50 µg/mL | IC50 (µg/mL), pseudovirus neutralization [16]: > 50 µg/mL | IC50 (µg/mL), pseudovirus neutralization [17]: 0.015 µg/mL | IC50 (µg/mL), pseudovirus neutralization [18]: > 50 µg/mL | IC50 (µg/mL), pseudovirus neutralization [19]: 14 µg/mL | IC50 (µg/mL), pseudovirus neutralization [20]: 0.012 µg/mL | IC50 (µg/mL), pseudovirus neutralization [21]: 0.027 µg/mL | IC50 (µg/mL), pseudovirus neutralization [22]: 0.102 µg/mL | IC50 (µg/mL), pseudovirus neutralization [23]: 8.69 µg/mL | IC50 (µg/mL), pseudovirus neutralization [24]: 0.006 µg/mL | IC50 (µg/mL), pseudovirus neutralization [25]: 0.039 µg/mL | IC50 (µg/mL), pseudovirus neutralization [26]: 2.22 µg/mL | IC50 (µg/mL), neutralization of pseudovirus [27]: 0.005 µg/mL | IC50 (µg/mL), neutralization of pseudovirus [28]: 2.15 µg/mL | IC50 (µg/mL), neutralization of pseudovirus [29]: > 50 µg/mL | IC50 (µg/mL), neutralization of pseudovirus [30]: 0.514 µg/mL | IC50 (µg/mL), neutralization of pseudovirus [31]: 31.3 µg/mL | IC50 (µg/mL), neutralization of pseudovirus [32]: 3.45 µg/mL | IC50 (µg/mL), neutralization of pseudovirus [33]: 0.008 µg/mL | IC50 (µg/mL), neutralization of pseudovirus [34]: > 50 µg/mL | IC50 (µg/mL), neutralization of pseudovirus [35]: > 50 µg/mL | IC50 (µg/mL), neutralization of pseudovirus [36]: 0.032 µg/mL | IC50 (µg/mL), neutralization of pseudovirus [37]: 0.016 µg/mL | IC50 (µg/mL), neutralization of pseudovirus [38]: 0.033 µg/mL | IC50 (µg/mL), neutralization of pseudovirus [39]: 0.079 µg/mL | IC50 (µg/mL), neutralization of pseudovirus [40]: 0.606 µg/mL | IC50 (µg/mL), neutralization of pseudovirus [41]: 0.01 µg/mL | Fold IC50 increase relative to wild-type [43]: 1.8 fold | Fold IC50 increase relative to wild-type [44]: 1.8 fold | IC50 (µg/mL), neutralization of pseudovirus [42]: > 50 µg/mL
